This passage reports zeta potential results from US12390535B2, “Method of making oral dosage forms” (UNIVERSITÄT HEIDELBERG, priority 2018, dated 2025).

A short description of this data set: Zetasizer measurement of zeta potential of liposomes. In kind it is physicochemical. The settings on record: CPP coupled after liposome preparation, eight equivalents relative to first lipid (FIG. 1). Here is the method: The zeta potential can be determined by methods known in the art. The zeta potential may be determined after dilution of the liposomes to a lipid concentration of 0.95 mg/ml using a 50 mM phosphate buffer with a pH of 7.4. The default settings of the automatic mode of the Zetasizer Nano ZS from Malvern™ (Malvern Instruments Ltd., Worcestershire, United Kingdom) can be chosen as follows: number of measurements=3; run duration=10 s; number of runs=10; equilibration time=60 s; refractive index solvent 1.330; refractive index polystyrene cuvette 1.590; viscosity=0.8872 mPa s; temperature=25° C.; dielectric constant=78.5 F/m; backscattering mode (173°); automatic voltage selection; Smoluchowski equation.
The particle size, PDI and zeta potential of all liposomal formulations were determined at room temperature using a zetasizer Nano ZS from Malvern™ (Malvern Instruments Ltd., Worcestershire, United Kingdom). Size and PDI were measured after dilution to a lipid concentration of 0.076 mg/ml with a 10 mM phosphate buffer with a pH of 7.4 using the automatic mode. The zeta potential was determined after dilution to a lipid concentration of 0.95 mg/ml by a 50 mM phosphate buffer with a pH of 7.4. […]

With “RRRRRRRRRC (cyclo(RRRRRRRRRC); also: coupled to liposomes) [R9C, here coupled to liposomes after their preparation]”, the zeta potential result is “only slightly positive”.
